The numbers were not newly measured in PMC7510350, which cites them from elsewhere.

What is called Kd is the concentration at which binding is half-saturated.

The target in data set [1] is SufA (Escherichia coli) (UniProt P77667).
Data set [2] addresses IscA (Escherichia coli) (UniProt P0AAC8).
Chain of UniProt P0AAC8 (P0AAC8 whole entry): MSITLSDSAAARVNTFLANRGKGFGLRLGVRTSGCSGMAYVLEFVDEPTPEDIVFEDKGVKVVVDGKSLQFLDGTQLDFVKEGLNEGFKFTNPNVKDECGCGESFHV

Chain of UniProt P77667 (P77667 whole entry): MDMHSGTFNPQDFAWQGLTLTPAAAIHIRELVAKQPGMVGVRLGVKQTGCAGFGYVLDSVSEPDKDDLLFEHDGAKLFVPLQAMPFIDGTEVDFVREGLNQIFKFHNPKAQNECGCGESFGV

Turning to ErpA (from UniProt P0ACC3), the Kd was 902 µM in data set [1] and 40 µM in data set [2].
